This is an account of results in PMC9079088, “FBXO2 targets glycosylated SUN2 for ubiquitination and degradation to promote ovarian cancer development” (Cell Death & Disease, 2022).

This assay deals with T1, HA-SUN2 (human (cDNA from 293T or A2780 cells), UniProt Q9UH99 1-717, N-glycosylation (sites not given)).
T1 construct: SAD1/UNC84 domain protein-2 (SUN2), cloned from cDNAs of 293T or A2780 cells; also called SAD1/UNC84 domain protein-2; source: HEK293T, transiently transfected; immunoprecipitated with anti-HA resin and eluted with HA peptide, or in lysate
T1 sequence (looked up): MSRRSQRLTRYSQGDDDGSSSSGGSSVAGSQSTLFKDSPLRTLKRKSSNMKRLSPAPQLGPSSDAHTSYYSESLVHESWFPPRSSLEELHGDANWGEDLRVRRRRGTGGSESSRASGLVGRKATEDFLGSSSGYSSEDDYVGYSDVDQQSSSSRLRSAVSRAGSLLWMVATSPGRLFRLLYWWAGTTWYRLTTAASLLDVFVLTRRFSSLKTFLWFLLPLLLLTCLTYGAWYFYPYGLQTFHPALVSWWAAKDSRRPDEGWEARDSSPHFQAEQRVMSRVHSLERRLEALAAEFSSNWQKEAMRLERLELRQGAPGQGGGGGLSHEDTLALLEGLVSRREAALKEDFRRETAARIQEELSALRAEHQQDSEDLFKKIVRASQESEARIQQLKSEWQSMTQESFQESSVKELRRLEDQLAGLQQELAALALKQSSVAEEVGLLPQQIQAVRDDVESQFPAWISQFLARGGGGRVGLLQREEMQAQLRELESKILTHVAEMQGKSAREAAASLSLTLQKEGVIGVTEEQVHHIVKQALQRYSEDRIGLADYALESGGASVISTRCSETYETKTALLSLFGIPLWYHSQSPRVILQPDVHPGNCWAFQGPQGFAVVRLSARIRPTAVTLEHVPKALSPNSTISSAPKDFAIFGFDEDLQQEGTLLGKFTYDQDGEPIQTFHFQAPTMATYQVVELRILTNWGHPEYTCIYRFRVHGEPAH
The experiment in a line: pull-down; GST or GST-FBXO2 incubated with HA-SUN2 (anti-HA resin, eluted with HA peptide) in PB buffer (20 mM HEPES pH 7.5, 130 mM KCl, 5 mM MgCl2, 1 mM DTT, 0.5 mM EDTA, 0.05% NP40) at 30 °C for 2 h, then glutathione beads; the legend speaks of lysed cells. The following applies: both partners purified.

B1: GST-FBXO2 WT (natural protein, human, UniProt Q9UK22 1-296, looked up)
chain: MDGDGDPESVGQPEEASPEEQPEEASAEEERPEDQQEEEAAAAAAYLDELPEPLLLRVLAALPAAELVQACRLVCLRWKELVDGAPLWLLKCQQEGLVPEGGVEEERDHWQQFYFLSKRRRNLLRNPCGEEDLEGWCDVEHGGDGWRVEELPGDSGVEFTHDESVKKYFASSFEWCRKAQVIDLQAEGYWEELLDTTQPAIVVKDWYSGRSDAGCLYELTVKLLSEHENVLAEFSSGQVAVPQDSDGGGWMEISHTFTDYGPGVRFVRFEHGGQDSVYWKGWFGARVTNSSVWVEP
notes: F-box protein FBXO2, human; also called GST tagged FBXO2
For the molecule B1, the binding result is “binds”.
